Measured values as given in the nanobody polyreactivity screen of Harvey et al. (2022).

experiment: yeast display, Sf9 membrane polyspecificity reagent, FACS + sequencing; frameworks hold sequencing errors
In short: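 Galactose induction of a Saccharomyces cerevisiae BJ5465 synthetic nanobody display library ran 36–48 hours. The cells were then stained for 1 hour at 4 °C with 10% biotinylated, detergent-solubilized Sf9 membrane reagent, pulled down on streptavidin microbeads and FACS-sorted into low and high (top ~1%) gates on expression and reagent-binding fluorescence. Labels for polyreactivity follow the gate of origin.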

Question: With “QVQLVESGGGLVQAGGSLRLSCAASGSTFRTYAMVWYRQAPGKERELVAAIRSRGGSTYYADSVKGRFTISRDNAKNTVYLQMNSLKPEDTAVYYCNAVPRWSYVDEDSWGQGTQVTVSS” as the sequence, how does the “polyreactivity (PSR sort gate)” value read?
Answer: high polyreactivity

Question: With “QVQLVESGGGLVQAGGSLRLSCAASGSTFRVYAMGWYRQAPGKERELVAAISWSGGRTYYADSVKGRFTISRDNAKNTVYLQMNSLKPEDTAVYYCAKPGYLRPSRYDYWGQGTQVTVSS” as the sequence, how does the “polyreactivity (PSR sort gate)” value read?
Answer: high polyreactivity

Question: For “QVQLVESGGGLVQAGGSLRLSCAASGSTFRVYAMGWYRQAPGKERELVAAITRIGGRTYYADSVKGRFTISRDNAKNTVYLQMNSLKPEDTAVYYCAARYPGGYSSGYNYWGQGTQVTVSS”, which “polyreactivity (PSR sort gate)” value is on record?
Answer: high polyreactivity

Question: Which “polyreactivity (PSR sort gate)” value does the source give for “QVQLVESGGGLVQAGGSLRLSCAASGSTFRVYAMGWYRQAPGKERELVANISWGGGRTYYADSVKGRFTISRDNAKNTVYLQMNSLKPEDTAVYYCAADIAWYTHYHRIFDYWGQGTQVTVSS” here?
Answer: low polyreactivity

Question: Which “polyreactivity (PSR sort gate)” value does the source give for “QVQLVESGGGLVQAGGSLRLSCAASGSTFRWNAMGWYTPAPGKERELVAAITSSGSTYYADSVKGRFTISRDNAKNTVYLQMNSLNPEDTAVYSCAGRANGYWNTYELDYWGQGIQVTVSS” here?
Answer: low polyreactivity

Question: With “QVQLVESGGGLVQAGGSLRLSCAASGSTFRWYAMGWYRQAPGKERELVAAIRSSGGSTYYADSVKGRFTISRDNAKNTVYLQMNSLKPEDTAVYYCNTYPARNFYSVAGGYWGQGTQVTVSS” as the sequence, how does the “polyreactivity (PSR sort gate)” value read?
Answer: low polyreactivity

Question: Which “polyreactivity (PSR sort gate)” value does the source give for “QVQLVESGGGLVQAGGSLRLSCAASGSTFRWYAMGWYRQAPGKERELVAAISARGTSTYYADSVKGRFTISRDNAKNTVYLQMNSLKPEDTAVYYCAATRTYQLYRWAPRYYYWGQGTQVTVSS” here?
Answer: high polyreactivity

Question: For “QVQLVESGGGLVQAGGSLRLSCAASGSTFRWYAMGWYRQAPGKERELVAAITWSGGRTYYADSVKGRFTISRDNAKNTVYLQMNSLKPEDTAVYYCAADRGPEHWYDYYYWGQGTQVTVSS”, which “polyreactivity (PSR sort gate)” value is on record?
Answer: high polyreactivity

Question: With “QVQLVESGGGLVQAGGSLRLSCAASGSTFRYNAMGWYRQAPGKEREFVAAITTSGVRTYYADSVKGRFTISRDNAKNTVYLQMTSLKPEDSAVYYCAARANYIFYGMDYWGQGTLVTVSS” as the sequence, how does the “polyreactivity (PSR sort gate)” value read?
Answer: high polyreactivity

Question: With “QVQLVESGGGLVQAGGSLRLSCAASGSTFRYNAMGWYRQAPGKERELVAAISKSGGSTYYADSVKGRFTISRDNAKNTVYLQMNSLKPEDTAVYYCAAKAYINNYDYWGQGTQVTVSS” as the sequence, how does the “polyreactivity (PSR sort gate)” value read?
Answer: high polyreactivity

Question: For “QVQLVESGGGLVQAGGSLRLSCAASGSTFRYNAMGWYRQAPGKERELVAAISKSGGSTYYADSVKGRFTISRDNAKNTVYLQMNSLKPEDTAVYYCATSYPYRIYRSSYDYWGQGTQVTVSS”, which “polyreactivity (PSR sort gate)” value is on record?
Answer: high polyreactivity

Question: Which “polyreactivity (PSR sort gate)” value does the source give for “QVQLVESGGGLVQAGGSLRLSCAASGSTFRYNAMGWYRQAPGKVRELVASITWSGGDTYYADSVKGRFTISRDNAKNTVYLQMNSLKPEDTAVYYCNKRVHYIAGRGYDYWGQGNQVTVSS” here?
Answer: low polyreactivity

Question: With “QVQLVESGGGLVQAGGSLRLSCAASGSTFRYNAMGWYRQPPGKERELVAAISSGGSTNYADSVKGRFTISRDNAKNTVYLQMNSLKPEDTAVYYCAATRPRIPVYQNNYGYWGQGTQVTVSS” as the sequence, how does the “polyreactivity (PSR sort gate)” value read?
Answer: high polyreactivity

Question: With “QVQLVESGGGLVQAGGSLRLSCAASGSTFRYSAMGWDRQAPGKEREFVAAISWSGSSTYYADSVKGRFTISRDNAKNTVYLQMNILKPEDTAGYYCAARYRYRSSSYDYWGQGTQVTVSS” as the sequence, how does the “polyreactivity (PSR sort gate)” value read?
Answer: high polyreactivity

Question: Which “polyreactivity (PSR sort gate)” value does the source give for “QVQLVESGGGLVQAGGSLRLSCAASGSTFRYYAMGWYRQAPGKERELVAAISGSGGRTYYADSVKGRFTISRDNAKNTVYLQMNSLKPEDTAVYYCAAQCGYYDSAYGSWGQGTQVTVSS” here?
Answer: high polyreactivity

Question: For “QVQLVESGGGLVQAGGSLRLSCAASGSTFRYYAMGWYRQAPGKERELVAAISRSGGRTYYADSVKGRFTISRDNAKNTVYLQMNSLKPEDTAVSYCATRGDGSSWGDHDYWGQGTQVTVSS”, which “polyreactivity (PSR sort gate)” value is on record?
Answer: high polyreactivity

Question: With “QVQLVESGGGLVQAGGSLRLSCAASGSTFRYYAMGWYRQAPGKERELVAAISWSGGSTYYADSVKGRFTISRDNAKNTVYLQMNSLKPEDTAVYYCNKAWFPYYYYRFDYWGQGTQVTVSS” as the sequence, how does the “polyreactivity (PSR sort gate)” value read?
Answer: high polyreactivity

Question: With “QVQLVESGGGLVQAGGSLRLSCAASGSTFRYYAMGWYRQAPGKERELVAAITQSGGITYYADSVKGRFTISRDNAKNTVYLQMNSLKPEDTAVYYCAKRYYVDYDYWGQGTHVTVSS” as the sequence, how does the “polyreactivity (PSR sort gate)” value read?
Answer: low polyreactivity

Question: For “QVQLVESGGGLVQAGGSLRLSCAASGSTFRYYAMGWYRQAPGKERELVAAITQSGGITYYADSVKGRFTISRDNAKNTVYLQMNSLKPEDTAVYYCAKRYYVDYDYWGQGTQVTVSS”, which “polyreactivity (PSR sort gate)” value is on record?
Answer: low polyreactivity

Question: Which “polyreactivity (PSR sort gate)” value does the source give for “QVQLVESGGGLVQAGGSLRLSCAASGSTFRYYAMGWYRQAPGKERELVAAITQSGGITYYADSVKGRFTISRDNANNTVYLQMNSLKPEDTAVYFCAKRYYVDYDYWGQGTQVTVSS” here?
Answer: low polyreactivity

Question: Which “polyreactivity (PSR sort gate)” value does the source give for “QVQLVESGGGLVQAGGSLRLSCAASGSTFRYYAMGWYRQAPGKERELVAAITSGGSTNYADSVKGRFTISRDNAKNTVYLQMNSLKPEDTAVYYCAAGRRLRHRYNQGGPDYGYWGQGSQVTVSS” here?
Answer: low polyreactivity

Question: For “QVQLVESGGGLVQAGGSLRLSCAASGSTFRYYAMGWYRQAPGKERELVAAITSGGSTNYADSVKGRFTISRDNAKNTVYLQMNSLKPEDTAVYYCAAGRRLRHRYNQGGPDYGYWGQGTQVTVSS”, which “polyreactivity (PSR sort gate)” value is on record?
Answer: low polyreactivity

Question: For “QVQLVESGGGLVQAGGSLRLSCAASGSTFRYYAMGWYRQAPGKERELVAAITSSGGRTYYADSVKGRFTISRDNAKNTVYLQMNSLKPEDTAVYYCAAYAYYHTGDDYWGQGTQVTVSS”, which “polyreactivity (PSR sort gate)” value is on record?
Answer: high polyreactivity

Question: With “QVQLVESGGGLVQAGGSLRLSCAASGSTFRYYAMGWYRQAPGKERELVATISSGGSTNYADSVKGRFTISRDNAKNTVYLQMNSLKPEDTAVYYCAAAYPQFWYWDYNYWGQGTQVTVSS” as the sequence, how does the “polyreactivity (PSR sort gate)” value read?
Answer: high polyreactivity

Question: With “QVQLVESGGGLVQAGGSLRLSCAASGSTFRYYAMGWYRQAPGKERELVAVISTSGNTYYADSVKGRFTISRDNAKNTVYFQMNSLKPEDTAVYYCAARGVGGQISQEYDYWGQGTQVTVSS” as the sequence, how does the “polyreactivity (PSR sort gate)” value read?
Answer: low polyreactivity

Question: For “QVQLVESGGGLVQAGGSLRLSCAASGSTFRYYDRGWYRQAPGKERELVAAITTSGDDTYYADSVKRRFTISRDNAKTTVYLQMNSLKPEDTAVYYCAADGYGGHKYELESWGQGTQVTVSS”, which “polyreactivity (PSR sort gate)” value is on record?
Answer: low polyreactivity

Question: Which “polyreactivity (PSR sort gate)” value does the source give for “QVQLVESGGGLVQAGGSLRLSCAASGSTFRYYGMGWYRQAPGKERELVAAISNGDSTNYADSVKGRFTISRDNAKNTVYLQMNSLKPEDTAVYYCATERYSYRVYGGITTFEYWGQGSQVTVSS” here?
Answer: high polyreactivity

Question: Which “polyreactivity (PSR sort gate)” value does the source give for “QVQLVESGGGLVQAGGSLRLSCAASGSTFRYYTMGWYRQAAGQERELVAAITSGGGSTYYADSVKGRFTISRDNAKNTVYLQMNSLKPEDTAVYYCAARTRGTADNYWGQGTQGTVSS” here?
Answer: high polyreactivity

Question: With “QVQLVESGGGLVQAGGSLRLSCAASGSTFRYYTMGWYRQAPGKERELVAAISGSGGITYYADSVKGRFTMSRDNAKNNVYLQMNSLKPEDTAVYYCNAGVFYRDDYWGQGTQVTVSS” as the sequence, how does the “polyreactivity (PSR sort gate)” value read?
Answer: high polyreactivity

Question: Which “polyreactivity (PSR sort gate)” value does the source give for “QVQLVESGGGLVQAGGSLRLSCAASGSTFRYYVMGWYRQAPGKERELVAAISAGGGRTYYADSVKGRFTISRDNSKNTVYLQMNSLKPEDTAVYYCAAKSVTPYWQEYEYDYWGQGTQVTVSS” here?
Answer: high polyreactivity

Question: Which “polyreactivity (PSR sort gate)” value does the source give for “QVQLVESGGGLVQAGGSLRLSCAASGSTFSANDMGWYRQAPGKEREFDAAITTSDDSTYYADSVKGRFTISRDNAKNTVYLQMNSVKPEDTAVYYCNAYSGYSFFGLGFFYKYDYWGQGTQVTVSS” here?
Answer: low polyreactivity

Question: With “QVQLVESGGGLVQAGGSLRLSCAASGSTFSAYDMGWYRQAPGKERELVAAIDTGGTTYYADSVKGRFTISRDTAKNTVYVQMNSLKPEDTAVYYCIATIWYRDYGYWGQGTQVTVSS” as the sequence, how does the “polyreactivity (PSR sort gate)” value read?
Answer: low polyreactivity

Question: For “QVQLVESGGGLVQAGGSLRLSCAASGSTFSDNARGWYRQAPGKERELVAAIKETGGSTYYADSVKGRCTISRDNAKNTVYLQMNSLKPEDTAVYYCNADIDPYGATYAIEYDYWGQGTQVTVSS”, which “polyreactivity (PSR sort gate)” value is on record?
Answer: low polyreactivity

Question: Which “polyreactivity (PSR sort gate)” value does the source give for “QVQLVESGGGLVQAGGSLRLSCAASGSTFSDYAMGWYRQAPGKERELVADISSDGSTYYADSVKGRFTISRDNAKNTVYLQMNSLKPEDTAVYYCNAGYPDYDWTWWHISYDYWGQGTQVTVSS” here?
Answer: low polyreactivity

Question: With “QVQLVESGGGLVQAGGSLRLSCAASGSTFSENAMGWYRQAPGKERELVADITNGGSTNYADSVKGRFTISRDNAKNTVYLQMNSLKPEDTAVYYCATDSYPGLNPDFDYWGQGTQVTVSS” as the sequence, how does the “polyreactivity (PSR sort gate)” value read?
Answer: low polyreactivity

Question: For “QVQLVESGGGLVQAGGSLRLSCAASGSTFSEYVMGWYRQAPGKERELVAVITTGTSTNYADSVKGRFTISRDNAKNTVYLQMNSLKPEDTAVYYCNAEYLYGVRYHDYWNDFDYWGQGTQVTVSS”, which “polyreactivity (PSR sort gate)” value is on record?
Answer: low polyreactivity

Question: Which “polyreactivity (PSR sort gate)” value does the source give for “QVQLVESGGGLVQAGGSLRLSCAASGSTFSFNDRGWYRQAPGKERELVADISCSGDTTYADSVKGRFTISRDNAKNTVYLQMKSLKPEATAVYYCAARQYFRNYVYWGQGTQVTVSS” here?
Answer: high polyreactivity

Question: For “QVQLVESGGGLVQAGGSLRLSCAASGSTFSFYAMGWYRQAPGKERELVAAISSRGGSTYYADSVKGRFTISRDNAKNTVYLQMNSLKPEDTAVYYCAVRRYPHFYHRGGFNFNGYDYWGQGTQVTVSS”, which “polyreactivity (PSR sort gate)” value is on record?
Answer: high polyreactivity

Question: For “QVQLVESGGGLVQAGGSLRLSCAASGSTFSGNAMGWYRQAPGKERELVASITDGGNTYYADSVKGRFTISRDNAKNTVYLQMNSLKPEDTAVYYCAAEILWGGYDYWGQGTQVTVSS”, which “polyreactivity (PSR sort gate)” value is on record?
Answer: low polyreactivity

Question: With “QVQLVESGGGLVQAGGSLRLSCAASGSTFSGNAMGWYRQAPGKEWELGATITITGGSTYYADSVKGRFTISRDNAKNTVYLQMNSLKPEDTAVYYCAKDYYAYSDYDYWGQGTQVTVSS” as the sequence, how does the “polyreactivity (PSR sort gate)” value read?
Answer: low polyreactivity

Question: With “QVQLVESGGGLVQAGGSLRLSCAASGSTFSGYAKGWYRQAPGKERELVAAINWNGGRTYYADSVKGRFTISRDNAKNTVYLQMNSLKPEDTAVYYCNKQSPRGRSAVYKYDYWGQGTQVTVSS” as the sequence, how does the “polyreactivity (PSR sort gate)” value read?
Answer: high polyreactivity

Question: For “QVQLVESGGGLVQAGGSLRLSCAASGSTFSGYAMGWDRQAPGNERELVAAITSGGITNYADSVKGRFSLSRDNAKNTVYLQMNSLKPEDTAVYYCAKSVSGIGVGYDYWGQGTQVTVSS”, which “polyreactivity (PSR sort gate)” value is on record?
Answer: low polyreactivity

Question: With “QVQLVESGGGLVQAGGSLRLSCAASGSTFSGYMGWNRQAPGKERELVAAITSGGSTNYADSVKGRFTISRDNAENTVYLQMNSLKPEDTAVYYCAAQGRWLGWRGYDYWGLGTQVTVSS” as the sequence, how does the “polyreactivity (PSR sort gate)” value read?
Answer: high polyreactivity
